Experimental data as given in patent publication US20240228562A1, “NOVEL LIPOCALIN MUTEINS SPECIFIC FOR CONNECTIVE TISSUE GROWTH FACTOR (CTGF)” (PIERIS PHARMACEUTICALS GMBH, priority 2021, published 2024).

Experiments:
Murine CTGF = biological target: T1, Murine CTGF (Mus musculus, UniProt P29268); assay: SPR binding kinetics and affinity, murine CTGF; conditions: 25° C., 1:1 binding model
T1 construct: purchased Abbexa
T1 sequence (P29268 26-348): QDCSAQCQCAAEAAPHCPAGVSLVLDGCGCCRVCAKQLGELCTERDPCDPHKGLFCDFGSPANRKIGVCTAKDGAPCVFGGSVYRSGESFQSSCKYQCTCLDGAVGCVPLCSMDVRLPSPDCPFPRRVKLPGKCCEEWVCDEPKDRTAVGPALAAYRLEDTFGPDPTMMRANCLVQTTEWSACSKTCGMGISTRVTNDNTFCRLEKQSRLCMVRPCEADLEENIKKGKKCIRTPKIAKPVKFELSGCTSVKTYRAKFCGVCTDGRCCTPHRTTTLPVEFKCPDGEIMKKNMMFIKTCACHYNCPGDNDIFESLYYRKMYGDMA
How it was run: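 Targets either amine-coupled to CM5 chip (300–1100 RU; Fc-tagged human, untagged rat/murine) or Fc-captured via anti-human IgG; muteins injected 180 s contact, 900–3600 s dissociation, 30 μL/min, 25° C. Double-referenced sensorgrams fit to 1:1 model giving kon, koff and KD.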

Rat CTGF = biological target: T2, Rat CTGF (Rattus norvegicus, UniProt Q9R1E9); assay: SPR binding kinetics and affinity, rat CTGF; conditions: 25° C., 1:1 binding model
T2 construct: purchased R&D Systems
T2 sequence (Q9R1E9 25-347): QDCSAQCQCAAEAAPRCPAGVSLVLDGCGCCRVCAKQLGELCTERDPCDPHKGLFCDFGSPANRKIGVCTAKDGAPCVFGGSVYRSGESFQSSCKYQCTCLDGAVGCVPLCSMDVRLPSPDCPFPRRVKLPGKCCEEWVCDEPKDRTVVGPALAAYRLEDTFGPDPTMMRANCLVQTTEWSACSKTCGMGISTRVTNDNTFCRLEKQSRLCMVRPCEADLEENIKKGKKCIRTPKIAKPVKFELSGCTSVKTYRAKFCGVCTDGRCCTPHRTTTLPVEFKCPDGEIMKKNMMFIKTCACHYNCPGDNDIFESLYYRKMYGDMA
Procedure: (§1) Surface plasmon resonance (SPR) was used to measure binding kinetics and affinity of the representative lipocalin muteins disclosed herein.
(§2) The binding of exemplary lipocalin muteins to human (Creative Biomart), cynomolgus, rat (R&D Systems) and mouse CTGF (Abbexa) was determined by SPR using a Biacore instrument (Cytiva, formerly GE Healthcare). Some targets were fused to a human IgG1 Fc tag, and captured via the anti-human IgG antibody kit, others were directly immobilized.
(§3) For some measurements, human CTGF with a human IgG1 Fc Tag or rat or murine CTGF without a tag were directly immobilized to a CM5 Chip. The carboxyl groups on the chip were activated using 1-ethyl-3-(3-dimethylaminopropyl)-carbodiimide (EDC) and N-hydroxysuccinimide (NHS). Subsequently, the targets at a concentration of 3-5 μg/mL in 10 mM sodium acetate (pH) 4.5 were applied at a flow rate of 10 μL/min until an immobilization level of 300-1100 resonance units was achieved. Residual non-reacted NHS-esters were blocked by passing a solution of 1 M ethanolamine across the surface. The reference channel was activated/deactivated. For the capture setting, targets with an IgG Fc Tag at 0.25-2.5 μg/mL in HBS-EP+ buffer were captured by the anti-human IgG-Fc antibody at the chip surface for 180 s at a flow rate of 10 μL/min.
(§4) The binding assay was carried out with a contact time of 180 s, a dissociation time of 900-3600 s and a flow rate of 30 μL/min. All measurements were performed at 25° C. […] For the directly immobilized targets, the same regeneration conditions were used. Prior to the protein measurements, three startup cycles were performed for conditioning purposes. Data were evaluated with Biacore Evaluation software. Double referencing was used and the 1:1 binding model was used to fit the raw data.
(§5) The values determined for kon, koff and the resulting equilibrium dissociation constant (KD) for exemplary lipocalin muteins are summarized in Table 4.

[1] = tested on: bleomycin-induced lung fibrosis; assay: Bleomycin mouse model of lung fibrosis; format: in vivo; conditions: day 14 after bleomycin
Procedure: The anti-fibrotic activity of lipocalin muteins upon local delivery to the lung was evaluated in vivo using a mouse model of bleomycin-induced lung fibrosis. Bleomycin is a DNA damaging agent, also used in cancer therapy, which induces a severe damage of the lung epithelium upon delivery to the lungs of rodents. The injury causes a strong inflammatory response in the lungs which in turn triggers fibrotic response. The peak of fibrotic remodeling, usually observed between day 14 and 21 after bleomycin challenge, is characterized by an excessive deposition of extracellular matrix and destruction of alveolar lung structures. Here, approximately 9 weeks old, male C57BL/6N mice were challenged with bleomycin at a dose of 1 mg/kg or saline as a control via the intranasal route. Animals were treated daily with lipocalin muteins at a dose of 5 mg/kg or PBS as a vehicle control via local delivery to the lungs from day 0 to day 13 after bleomycin challenge. […] Animals were sacrificed at day 14 after bleomycin challenge and level of lung fibrosis was analyzed in formalin fixed, paraffin embedded lung tissues by histopathological evaluation using the Ashcroft score (Matsuse modification) and quantitative digital analysis of IHC detected Collagen1a1 protein deposition.
For determination of the Ashcroft score lung tissue slides were stained according to the Crossman's Trichrome method (Gray, Peter (1954) The Microtomist's Formulary and Guide. Blakiston, New York, 1954). The whole pulmonary area subjected for histopathological analysis was evaluated at ten low magnification fields and total score for each animal was calculated as a mean (Ashcroft et al., Journal of clinical pathology 41.4 (1988): 467-470; Matsuse, T., et al. European Respiratory Journal 13.1 (1999): 71-77.). […]
Collagen1a1 (Col1a1) deposition was analyzed by immunohistochemistry as a second measure for fibrotic lung remodeling. […] Stained tissue slides were evaluated for Col1a1 deposition by digital image analysis using the morphometry protocol (CaloPix software, TRIBVN). […]

human CTGF [2] = biological target: T3, human CTGF (Homo sapiens, UniProt P29279); assay: SPR binding kinetics and affinity, human CTGF; conditions: 25° C., 1:1 binding model
T3 construct: purchased Creative Biomart
How it was run: (§6)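 Biacore SPR at 25 °C; CTGF either Fc-captured via anti-human IgG (HBS-EP+) or amine-coupled to CM5 (300–1100 RU). Muteins injected 180 s contact, 900–3600 s dissociation, 30 μL/min.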

human CTGF [3] = biological target: T4, human CTGF (Homo sapiens, UniProt P29279, H83D); assay: SPR binding kinetics and affinity, human CTGF; conditions: 25° C., 1:1 binding model
T4 construct: purchased Creative Biomart
How it was run: as §6

[4] = Thermal stability assessment by nanoDSC; format: physicochemical; conditions: 1 mg/mL in PBS, scan 25-100° C. at 1° C./min
How it was run: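 CTGF-specific lipocalin muteins at 1 mg/mL in PBS scanned from 25 to 100° C at 1° C/min by capillary nano-DSC. Where several transitions occur, the Tm of the major unfolding event is reported, along with onset temperature. Some muteins were expressed in E. coli, others in CHO cells.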

cynomolgus CTGF = assay: SPR binding kinetics and affinity, cynomolgus CTGF; conditions: 25° C., 1:1 binding model
Procedure: as §1, §2, §3, §4, §5

[5] = mutein 5 mg/kg daily to lung, antibody 10 mg/kg every other day intravenous

cynomolgus CTGF, sequence (as listed by the source): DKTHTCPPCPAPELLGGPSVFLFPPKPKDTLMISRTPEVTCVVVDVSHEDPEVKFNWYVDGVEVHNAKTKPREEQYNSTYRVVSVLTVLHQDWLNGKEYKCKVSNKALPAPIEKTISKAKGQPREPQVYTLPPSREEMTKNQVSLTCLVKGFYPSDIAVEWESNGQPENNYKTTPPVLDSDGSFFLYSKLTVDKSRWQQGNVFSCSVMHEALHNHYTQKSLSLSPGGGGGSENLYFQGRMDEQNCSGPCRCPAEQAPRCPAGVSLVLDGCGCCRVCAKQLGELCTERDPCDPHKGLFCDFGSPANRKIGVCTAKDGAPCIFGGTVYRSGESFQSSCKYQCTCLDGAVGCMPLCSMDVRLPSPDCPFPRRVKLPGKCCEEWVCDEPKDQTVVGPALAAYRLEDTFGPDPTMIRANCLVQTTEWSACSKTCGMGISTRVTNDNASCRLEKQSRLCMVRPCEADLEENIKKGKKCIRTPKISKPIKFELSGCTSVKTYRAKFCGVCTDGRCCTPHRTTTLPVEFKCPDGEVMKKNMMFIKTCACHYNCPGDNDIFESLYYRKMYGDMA
T3 sequence (P29279 with tags, fused parts or gaps H83D): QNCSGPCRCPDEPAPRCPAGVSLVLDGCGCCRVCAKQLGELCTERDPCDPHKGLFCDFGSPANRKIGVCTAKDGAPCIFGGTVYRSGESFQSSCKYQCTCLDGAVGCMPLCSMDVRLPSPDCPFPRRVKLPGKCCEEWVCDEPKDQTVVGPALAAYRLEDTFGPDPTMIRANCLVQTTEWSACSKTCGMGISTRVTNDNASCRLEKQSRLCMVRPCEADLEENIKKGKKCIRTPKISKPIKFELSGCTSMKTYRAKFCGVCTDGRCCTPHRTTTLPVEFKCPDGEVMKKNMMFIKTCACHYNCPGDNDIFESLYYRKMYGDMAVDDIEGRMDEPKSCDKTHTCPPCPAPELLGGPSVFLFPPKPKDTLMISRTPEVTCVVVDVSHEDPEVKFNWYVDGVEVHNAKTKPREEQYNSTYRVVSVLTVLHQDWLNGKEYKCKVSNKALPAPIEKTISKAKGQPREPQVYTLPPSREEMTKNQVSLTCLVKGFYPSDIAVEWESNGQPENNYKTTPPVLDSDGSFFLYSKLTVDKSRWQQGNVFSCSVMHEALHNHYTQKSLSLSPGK
T4 sequence (P29279 with tags, fused parts or gaps H83D): as above

Murine CTGF koff (Murine CTGF): 1.16e-05 s⁻¹ | Murine CTGF kon (Murine CTGF): 299000 M⁻¹ s⁻¹ | Rat CTGF koff (Rat CTGF): 3.51e-05 s⁻¹ | Rat CTGF kon (Rat CTGF): 138000 M⁻¹ s⁻¹ | human CTGF koff (human CTGF [2]): 1.41e-05 s⁻¹ | human CTGF kon (human CTGF [3]): 157000 M⁻¹ s⁻¹ | cynomolgus CTGF koff (cynomolgus CTGF): 2.63e-05 s⁻¹ | cynomolgus CTGF kon (cynomolgus CTGF): 195000 M⁻¹ s⁻¹
B1: SEQ ID NO: 24: optimized CTGF-binding hNGAL lipocalin mutein (protein)
chain: QDSTSDLIPAPPLSKVPLQQNFQDNQFQGKWYVVGVAGNAILRTDKQPAKMFATIYELKEDKSYDVTSVRFEAKSCKYTIKTFVPGSQPGEFTAGNIKSAPGQTSTLVRVVSTNYNQHAMVFFKHVSQNREIFVITLYGRTKELTSELKENFIRFSKSLGLPENHIVFPVPIDQCIDG
modifications: lipocalin mutein
Reduction of Ashcroft score vs mean of vehicle-treated animals ([1]; mutein 5 mg/kg daily local lung delivery day 0-13): 14.1% | Effect on Ashcroft score [1, 5]: significantly decreased the Ashcroft score | Reduction of Col1a1 positive lung surface area vs mean of vehicle controls [1, 5]: 25.2% | ONSET MELTING [4]: 58 °C | TM ([4]; major transition): 72 °C
